# “Also recorded” adds a separate entry of the source.
# Columns and labels:
# ABCA1 = ABCA1 (Mus musculus, UniProt P41233); assay: Cholesterol efflux from [3H]cholesterol-labeled ABCA1-expressing J774 mouse macrophages; format: cell-based; parameters: to upregulate cellular ABCA1 protein; endogenous in cells; host or cells: J774 mouse macrophages
# Interleukin-6 = assay: Serum Interleukin-6 in ApoE -/- mice (fluorescent bead immunoassay); format: in vivo, mouse
# Excerpt: Apolipoprotein E deficient (ApoE −/−) mice at 6 weeks old were given a Western diets for 18 weeks before commencing treatment. Once daily, intraperitoneal injections were given as saline or the polypeptide of SEQ ID NO:4 (n=6-7 per group). At termination, serum was collected and analyzed for Interleukin-6 concentration by a fluorescent bead immunoassay utilizing flow cytometry (BMS820FF). Mice treated with the polypeptide of SEQ ID NO:4 had about 68% lower serum levels of IL-6 (see, FIG. 22).
# Chain of ABCA1 (P41233 whole entry): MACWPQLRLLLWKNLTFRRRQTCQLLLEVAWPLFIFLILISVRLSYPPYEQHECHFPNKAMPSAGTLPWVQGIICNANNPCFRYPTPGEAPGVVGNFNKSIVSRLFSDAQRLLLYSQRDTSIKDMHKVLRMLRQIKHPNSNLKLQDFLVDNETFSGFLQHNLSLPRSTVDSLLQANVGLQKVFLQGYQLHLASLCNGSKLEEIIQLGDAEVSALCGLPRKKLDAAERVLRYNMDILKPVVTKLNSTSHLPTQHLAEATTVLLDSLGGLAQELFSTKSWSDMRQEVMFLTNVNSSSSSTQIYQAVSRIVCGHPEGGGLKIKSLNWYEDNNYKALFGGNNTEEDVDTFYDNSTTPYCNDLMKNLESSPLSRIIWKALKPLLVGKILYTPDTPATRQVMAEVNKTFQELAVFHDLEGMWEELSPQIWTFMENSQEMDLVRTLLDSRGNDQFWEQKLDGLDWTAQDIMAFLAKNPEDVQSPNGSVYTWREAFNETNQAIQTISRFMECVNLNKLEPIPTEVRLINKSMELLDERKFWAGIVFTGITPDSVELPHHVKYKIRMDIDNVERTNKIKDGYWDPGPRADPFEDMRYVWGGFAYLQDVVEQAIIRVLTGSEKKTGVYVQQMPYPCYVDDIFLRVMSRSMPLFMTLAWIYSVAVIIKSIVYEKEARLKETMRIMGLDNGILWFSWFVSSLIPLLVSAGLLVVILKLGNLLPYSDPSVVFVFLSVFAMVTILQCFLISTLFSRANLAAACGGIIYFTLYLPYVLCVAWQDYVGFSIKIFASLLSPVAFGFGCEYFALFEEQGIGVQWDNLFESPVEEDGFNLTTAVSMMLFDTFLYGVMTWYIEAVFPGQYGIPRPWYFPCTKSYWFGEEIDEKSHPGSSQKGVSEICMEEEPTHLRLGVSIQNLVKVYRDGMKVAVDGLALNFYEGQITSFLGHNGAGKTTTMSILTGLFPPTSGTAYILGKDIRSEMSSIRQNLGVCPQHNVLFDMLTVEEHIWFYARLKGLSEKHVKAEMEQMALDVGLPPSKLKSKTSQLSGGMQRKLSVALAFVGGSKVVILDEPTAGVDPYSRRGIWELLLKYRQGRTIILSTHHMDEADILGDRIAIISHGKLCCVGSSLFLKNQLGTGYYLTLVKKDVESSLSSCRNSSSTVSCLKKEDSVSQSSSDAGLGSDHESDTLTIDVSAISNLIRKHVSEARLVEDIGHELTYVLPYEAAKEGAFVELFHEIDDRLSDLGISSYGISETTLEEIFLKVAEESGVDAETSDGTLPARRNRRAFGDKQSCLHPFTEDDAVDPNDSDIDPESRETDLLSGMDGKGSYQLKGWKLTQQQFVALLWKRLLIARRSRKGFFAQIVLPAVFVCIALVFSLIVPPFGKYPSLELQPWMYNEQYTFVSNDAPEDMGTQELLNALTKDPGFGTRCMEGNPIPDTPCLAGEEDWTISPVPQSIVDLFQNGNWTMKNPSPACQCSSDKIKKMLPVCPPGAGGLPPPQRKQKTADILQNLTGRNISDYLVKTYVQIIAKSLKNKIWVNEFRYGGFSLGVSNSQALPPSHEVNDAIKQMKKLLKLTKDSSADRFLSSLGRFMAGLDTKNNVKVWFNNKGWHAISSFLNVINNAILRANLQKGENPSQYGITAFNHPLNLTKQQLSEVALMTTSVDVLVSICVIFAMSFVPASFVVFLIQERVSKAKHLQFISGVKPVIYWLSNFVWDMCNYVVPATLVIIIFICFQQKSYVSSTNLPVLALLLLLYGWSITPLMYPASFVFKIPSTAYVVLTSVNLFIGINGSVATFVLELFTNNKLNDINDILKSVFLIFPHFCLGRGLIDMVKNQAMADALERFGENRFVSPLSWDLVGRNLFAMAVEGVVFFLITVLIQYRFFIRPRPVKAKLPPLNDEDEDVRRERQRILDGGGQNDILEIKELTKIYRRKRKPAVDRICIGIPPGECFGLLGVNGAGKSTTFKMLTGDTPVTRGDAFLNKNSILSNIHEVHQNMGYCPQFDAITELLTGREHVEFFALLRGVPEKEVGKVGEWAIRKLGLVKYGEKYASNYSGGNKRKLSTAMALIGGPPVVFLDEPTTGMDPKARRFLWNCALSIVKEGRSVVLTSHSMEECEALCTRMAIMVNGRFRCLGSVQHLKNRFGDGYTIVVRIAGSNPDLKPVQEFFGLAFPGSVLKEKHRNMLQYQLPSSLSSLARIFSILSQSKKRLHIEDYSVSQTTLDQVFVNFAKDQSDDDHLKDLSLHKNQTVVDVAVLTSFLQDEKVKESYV
sequence,measurement,setting,value
"EVRSKLEEWFAAFREFAEEFLARLKS (ATI-5261 amphipathic alpha-helix polypeptide core sequence selectively binds HDL, high-affinity ligand for ATP-binding cassette transporter A1 (ABCA1), ABCA1-lipid cholesterol efflux, ABCA1-stablization, anti-oxidant and anti- inflammatory activity) [SEQ ID NO:4]",cholesterol efflux efficiency/potency on per molecule (molar) basis versus apolipoproteins,ABCA1; Km in molar units,"molar potency similar to that of apolipoproteins; also recorded: activity similar to full-length Apo A-I, Apo E, and the C-terminal (CT) domain of Apo E"
same,cholesterol efflux at low mass concentrations,ABCA1; increasing concentrations based on mass,relatively high-levels of cholesterol efflux
same,more potent than ApoA-I in stimulating cholesterol efflux,"ABCA1; mass basis, over working concentration range",at least 300%
same,serum IL-6 versus saline (in words),"Interleukin-6; mouse, in vivo",lowered levels of the inflammatory cytokine IL-6
same,lower serum levels of IL-6,"Interleukin-6; once daily IP, vs saline, after 18 weeks Western diet",about 68%

# From patent publication US8987192B2, “Potent and selective mediators of cholesterol efflux” (The Regents of the University of California, priority 2006, dated 2015)
